One molecule from publication doi:10.1101/2020.06.08.141267 (bioRxiv, 2020) can be followed below.

The target in the assay is T1, receptor-binding domain (RBD) of the SARS-CoV-2 spike (S) protein (SARS-CoV-2, UniProt P0DTC2).
T1 construct: not shown: His6, C-terminal, kept
Put plainly: BLI. The conditions noted are these: both partners purified.

B1: CC12.1 Fab (Fab, V domains shown)
VH: EVQLVESGGGLIQPGGSLRLSCAASGLTVSSNYMSWVRQAPGKGLEWVSVIYSGGSTFYADSVKGRFTISRDNSKNTLYLQMNSLRAEDTAVYYCARDLDVYGLDVWGQGTTVTVSS
VL: DIVMTQSPSFLSASVGDRVTITCRASQGISSYLAWYQQKPGKAPKLLIYAASTLQSGVPSRFSGSGSGTEFTLTISSLQPEDFATYYCQQLNSYPPKFTFGPGTKVEIK
notes: also called Fab CC12.1
As for B1, the Kd (in general, a measure of binding affinity in units of concentration) amounted to 17 nM.
